# Measured values as given in patent publication US20170246372A1.
# Target: ADAMTS-5 (UniProt Q9UNA0)
# Experiment: cell-based or functional assay
# Chain of UniProt Q9UNA0 (Q9UNA0 262-622 limits assumed): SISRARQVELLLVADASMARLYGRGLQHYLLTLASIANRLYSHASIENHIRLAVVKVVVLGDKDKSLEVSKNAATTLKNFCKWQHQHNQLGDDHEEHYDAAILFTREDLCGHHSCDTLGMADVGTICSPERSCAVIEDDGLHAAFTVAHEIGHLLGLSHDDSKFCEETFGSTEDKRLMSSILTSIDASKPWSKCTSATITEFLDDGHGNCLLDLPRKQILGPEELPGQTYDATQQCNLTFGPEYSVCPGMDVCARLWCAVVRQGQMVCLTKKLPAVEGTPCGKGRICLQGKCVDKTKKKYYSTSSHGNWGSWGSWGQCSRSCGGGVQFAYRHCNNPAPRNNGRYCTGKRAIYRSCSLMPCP
substance,measurement,value
purified A2M (alpha-2-macroglobulin) (from UniProt P01023 24-1474),"IC50 for inhibiting 500 ng/ml of ADAMTS-5 (bovine cartilage explants, 2 days, 3-fold serial dilution of A2M)",7 µg/mL
same,"Maximum inhibition (bovine cartilage explants treated with protease, 2 days)",90%
